Assay results as given in patent US20040126784.

What follows are substances tested on Histone H1.

Chain of PIM1 D186N mutant fused to GFP with a myc tag (chain, as listed by the source D186N): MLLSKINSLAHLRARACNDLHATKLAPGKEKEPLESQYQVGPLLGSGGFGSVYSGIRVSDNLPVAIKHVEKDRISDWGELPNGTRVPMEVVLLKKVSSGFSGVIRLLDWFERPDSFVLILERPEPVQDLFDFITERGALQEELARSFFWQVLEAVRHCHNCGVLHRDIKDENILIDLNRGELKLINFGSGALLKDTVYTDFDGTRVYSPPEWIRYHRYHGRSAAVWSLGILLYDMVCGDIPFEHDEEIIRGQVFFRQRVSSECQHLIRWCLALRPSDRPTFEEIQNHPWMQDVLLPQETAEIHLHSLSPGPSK
Chain of Pim1 K67A mutant fused to GFP with a myc tag (chain, as listed by the source K67A): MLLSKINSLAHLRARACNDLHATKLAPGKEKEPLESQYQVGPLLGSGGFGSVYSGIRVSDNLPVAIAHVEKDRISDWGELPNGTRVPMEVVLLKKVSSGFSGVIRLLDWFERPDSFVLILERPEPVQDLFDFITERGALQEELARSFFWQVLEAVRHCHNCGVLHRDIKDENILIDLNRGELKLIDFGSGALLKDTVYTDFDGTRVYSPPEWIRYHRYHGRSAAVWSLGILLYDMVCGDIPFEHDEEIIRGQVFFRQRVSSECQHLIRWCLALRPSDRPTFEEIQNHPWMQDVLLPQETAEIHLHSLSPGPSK
Chain of wild type PIM1 fused to GFP with a myc tag (chain, as listed by the source): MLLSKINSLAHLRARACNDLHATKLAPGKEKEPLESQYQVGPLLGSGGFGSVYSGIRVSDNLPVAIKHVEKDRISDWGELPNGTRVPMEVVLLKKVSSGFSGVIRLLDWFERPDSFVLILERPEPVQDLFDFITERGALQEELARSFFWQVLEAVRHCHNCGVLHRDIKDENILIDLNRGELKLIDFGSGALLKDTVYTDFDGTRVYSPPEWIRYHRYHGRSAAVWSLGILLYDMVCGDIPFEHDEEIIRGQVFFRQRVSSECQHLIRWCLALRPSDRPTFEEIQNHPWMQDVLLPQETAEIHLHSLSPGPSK

Row | Substance | kinase activity (immune complex kinase assay, 32P-ATP)
1 | Pim1 K67A mutant fused to GFP with a myc tag | Wild type PIM1 exhibited kinase activity, while the mutant PIM1 proteins did not.
2 | PIM1 D186N mutant fused to GFP with a myc tag | Wild type PIM1 exhibited kinase activity, while the mutant PIM1 proteins did not.
3 | wild type PIM1 fused to GFP with a myc tag | Wild type PIM1 exhibited kinase activity, while the mutant PIM1 proteins did not.
